Measured values taken from publication PMC5941077.

Biological target: FLAG-tagged 3D7 CLAG3 protein (3D7 CLAG3.1 with tandem miniSOG-FLAG tag, TFLC3 parasite) (Plasmodium falciparum (3D7 line)) (UniProt O77310)
Assay: co-IP; TFLC3 trophozoite-infected cell lysate in 50 mM Tris-HCl pH 7.4, 150 mM NaCl, 5 mM EDTA, 1% Triton X-100; anti-FLAG agarose beads, at least 2 h at 4°C; immunoblot probed with anti-HA; eluate compared with serial dilutions of the input

Chain of UniProt O77310 (O77310 25-1417): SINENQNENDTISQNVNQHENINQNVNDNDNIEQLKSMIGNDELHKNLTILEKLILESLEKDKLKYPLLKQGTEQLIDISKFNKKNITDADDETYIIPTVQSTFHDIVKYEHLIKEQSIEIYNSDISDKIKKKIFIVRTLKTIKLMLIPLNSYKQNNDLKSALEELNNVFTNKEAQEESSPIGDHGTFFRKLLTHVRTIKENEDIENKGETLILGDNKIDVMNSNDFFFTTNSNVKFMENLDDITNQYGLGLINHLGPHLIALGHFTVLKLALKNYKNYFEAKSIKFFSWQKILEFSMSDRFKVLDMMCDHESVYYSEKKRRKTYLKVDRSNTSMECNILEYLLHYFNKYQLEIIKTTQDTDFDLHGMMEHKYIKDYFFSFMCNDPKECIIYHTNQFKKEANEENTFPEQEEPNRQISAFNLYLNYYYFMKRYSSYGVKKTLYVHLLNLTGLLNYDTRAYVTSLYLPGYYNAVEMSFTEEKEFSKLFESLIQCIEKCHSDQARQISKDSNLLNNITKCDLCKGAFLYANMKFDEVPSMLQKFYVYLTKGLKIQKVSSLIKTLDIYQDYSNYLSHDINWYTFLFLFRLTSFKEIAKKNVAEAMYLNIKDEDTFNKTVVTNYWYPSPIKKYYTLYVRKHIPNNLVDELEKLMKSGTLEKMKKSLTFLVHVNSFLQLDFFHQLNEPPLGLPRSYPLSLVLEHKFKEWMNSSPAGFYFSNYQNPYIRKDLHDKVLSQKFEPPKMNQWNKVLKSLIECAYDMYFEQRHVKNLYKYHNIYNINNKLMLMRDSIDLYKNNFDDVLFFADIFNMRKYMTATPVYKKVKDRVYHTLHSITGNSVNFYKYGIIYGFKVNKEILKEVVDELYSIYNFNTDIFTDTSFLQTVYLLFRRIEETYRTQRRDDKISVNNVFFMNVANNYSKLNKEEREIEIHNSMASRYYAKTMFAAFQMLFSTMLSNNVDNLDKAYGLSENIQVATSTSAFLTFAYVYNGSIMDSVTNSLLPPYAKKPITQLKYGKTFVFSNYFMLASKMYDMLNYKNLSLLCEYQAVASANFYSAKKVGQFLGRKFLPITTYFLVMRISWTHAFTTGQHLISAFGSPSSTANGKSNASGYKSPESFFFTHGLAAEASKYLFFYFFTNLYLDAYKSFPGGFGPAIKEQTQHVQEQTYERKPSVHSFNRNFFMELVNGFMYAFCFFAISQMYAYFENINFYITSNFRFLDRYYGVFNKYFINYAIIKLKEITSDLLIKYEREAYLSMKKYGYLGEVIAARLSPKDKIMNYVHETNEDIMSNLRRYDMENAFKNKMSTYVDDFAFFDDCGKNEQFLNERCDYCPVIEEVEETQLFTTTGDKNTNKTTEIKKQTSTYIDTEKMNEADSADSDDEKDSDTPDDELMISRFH

## HA-tagged Dd2 CLAG3 protein (TFLC3 parasite) (natural protein)
  percent of the HA-tagged isoform coprecipitated on anti-FLAG beads: 1 to 10%
